Columns and labels:
[1] = molecular target: GAS41 YEATS domain (residues 11–150) (human) (UniProt O95619); experiment: MST
Flag-GAS41 H43S (human) = Flag-GAS41 H43S (human) (UniProt O95619); experiment: co-IP
Chain of Flag-GAS41 H43S (human) (O95619 whole entry H43S): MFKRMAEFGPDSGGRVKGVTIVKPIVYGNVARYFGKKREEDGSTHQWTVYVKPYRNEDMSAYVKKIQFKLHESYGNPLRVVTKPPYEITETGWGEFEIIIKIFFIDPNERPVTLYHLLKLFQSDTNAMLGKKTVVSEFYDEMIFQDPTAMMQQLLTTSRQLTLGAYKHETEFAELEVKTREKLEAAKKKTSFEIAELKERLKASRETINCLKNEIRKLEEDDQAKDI

Chain of GAS41 YEATS domain (residues 11–150) (human) (O95619 11-150): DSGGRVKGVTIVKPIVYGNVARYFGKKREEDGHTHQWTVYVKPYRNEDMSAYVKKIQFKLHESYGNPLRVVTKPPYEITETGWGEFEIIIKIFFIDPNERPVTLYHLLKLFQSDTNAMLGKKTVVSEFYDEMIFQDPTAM

“H3K27cr nucleosome core particle (from UniProt P04908 1-130; P62805 1-103) (complex)” gave a Kd [1] of 158 nM.
For “nucleosomal histone H3K27cr (endogenous) (from UniProt P68431 1-136) (natural protein)”, the percent reduction of binding against Flag-GAS41 wt (Flag-GAS41 H43S (human)) was greater than 60%.
“H3K27ac nucleosome core particle (from UniProt P04908 1-130; P62805 1-103) (complex)” gave a Kd [1] of 229 nM.
“unmodified nucleosome core particle (from UniProt P04908 1-130; P62805 1-103) (complex)” showed a Kd [1] of 913 nM.

Source: PMC11138481
